Like-named read-outs stand apart in the source and are kept apart here.
Key:
Human HER3 receptor [1] = target: T1, Human HER3 receptor (human, UniProt P21860 20-1342); assay: cell-based or functional assay
[2] = target: T2, Human HER3 ECD domain 2-3 protein (human, UniProt P21860 184-495); assay: BIACORE 2000 SPR, mAb captured, HER3 protein as analyte, 25 C
T2 construct: also called D2-3; sub-domains 2-3
Experimental: (§1) Mouse monoclonal antibodies were analysed using rabbit anti-mouse (RAM) IgG (GE Healthcare BR-1008-38) covalently coupled to a BIACORE™ CM5 chip (GE HEalthcare BR-1000-14) by primary amine chemistry (NHS/EDC activated) (GE Healthcare amine coupling kit BR-1000-50). Chimeric and humanized competitor monoclonal antibodies were analyzed using anti-human, Fc specific monoclonal (GE Healthcare BR-1008-39) similarly coupled. Each chip was also prepared with a reference surface to which no capture reagent antibody is coupled. Sensorgrams for cycles run with differing analyte concentrations are acquired for kinetic analysis. A cycle consists of capturing the monoclonal on the surface, a short stabilization period with flowing run buffer followed by binding of a defined concentration of analyte (ECD or sub-domain protein). Injection of analyte for surface binding (3-4 minutes) yields the association part of curve. This is followed by buffer only flow (3-4 minutes) which allows recording of dissociation data.
(§2) The general method for affinity analysis is as follows. First, chips were prepared and tested for reasonance units (RU) captured for several monoclonal antibody concentrations. Kinetic cycles were then run in which monoclonal antibody was captured to a level of approximately 100RU, analyte protein was allowed to bind then dissociate and the surface was regenerated to remove all but covalently coupled protein. RAM chips were regenerated with capture kit supplied 100 mM glycine pH1.7 and anti-human chips with capture kit supplied 3M MgCl₂. […] Several buffer cycles were run prior to analyte protein to ensure cycle consistency and in some experiments a buffer cycle is used a “double reference[.]” Analytes used were human full length HER3 extra cellular domain (ECD), separate sub-domains of the extracellular portion of human HER3 (D1, D2, D3, D4), or combination HER3 domain proteins (D1-2 and D2-3).

[3] = target: T3, Full-length human HER3 extracellular domain (ECD) (human, UniProt P21860 20-643); assay: as above
T3 construct: also called human HER3 ECD; HER-3 ECD full length
T3 sequence (P21860 20-643): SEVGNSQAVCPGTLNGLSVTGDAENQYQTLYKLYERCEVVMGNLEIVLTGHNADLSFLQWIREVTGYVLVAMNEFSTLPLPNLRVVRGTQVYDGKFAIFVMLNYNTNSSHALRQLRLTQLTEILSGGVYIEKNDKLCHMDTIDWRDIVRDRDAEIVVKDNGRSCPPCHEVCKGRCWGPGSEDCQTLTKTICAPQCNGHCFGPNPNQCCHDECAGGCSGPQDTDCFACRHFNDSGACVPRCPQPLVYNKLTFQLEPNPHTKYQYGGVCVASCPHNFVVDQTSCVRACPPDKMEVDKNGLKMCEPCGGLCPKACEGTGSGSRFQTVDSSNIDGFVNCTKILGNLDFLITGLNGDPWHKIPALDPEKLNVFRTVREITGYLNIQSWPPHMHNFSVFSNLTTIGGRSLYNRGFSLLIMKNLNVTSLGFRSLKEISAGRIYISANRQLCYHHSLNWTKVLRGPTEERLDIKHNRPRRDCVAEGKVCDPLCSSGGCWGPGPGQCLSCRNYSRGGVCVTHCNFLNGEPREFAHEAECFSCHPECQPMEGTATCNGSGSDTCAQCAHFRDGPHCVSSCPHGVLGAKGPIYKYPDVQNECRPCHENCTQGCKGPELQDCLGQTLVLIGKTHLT
Experimental: as §1, §2

[4] = target: T4, Human HER3 ECD domain III (human, UniProt P21860 330-495); assay: as above
T4 construct: also called D3; Domain 3
T4 sequence (P21860 330-495): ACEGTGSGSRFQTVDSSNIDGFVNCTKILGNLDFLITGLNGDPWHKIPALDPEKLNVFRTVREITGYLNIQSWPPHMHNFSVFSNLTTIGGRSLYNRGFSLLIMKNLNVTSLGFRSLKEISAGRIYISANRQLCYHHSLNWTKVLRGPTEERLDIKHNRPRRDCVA
Experimental: as §1, §2

Human HER3 ECD domain II [5] = target: T5, Human HER3 ECD domain II (human, UniProt P21860 184-329); assay: DELFIA, plate coated with HER3 Domain II 1ug/ml
T5 construct: also called D2; Domain 2
T5 sequence (P21860 184-329): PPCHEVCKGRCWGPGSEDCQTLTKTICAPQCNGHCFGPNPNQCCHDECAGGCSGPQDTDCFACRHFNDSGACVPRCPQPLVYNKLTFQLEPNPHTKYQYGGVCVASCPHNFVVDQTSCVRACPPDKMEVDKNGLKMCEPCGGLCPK
Experimental: (§3) Dissociation Enhanced Lanthanide Fluorescence Immunoassay (DELFIA) for detection of the anti-HER3 antibodies to HER3 extracellular domain (ECD) was used. The DELFIA procedures were as follows: white Maxisorp 96-well plates (Nunc #437796) were coated with 100 ul/well of 1 ug/ml HER-3 ECD full length or HER3Domain I, II, III and IV in 0.1M carbonate buffer pH 9.5 overnight at 4° C. These plates were blocked with casein in TBS (Thermo Scientific #37532 lot#JD121074). The neat hybridoma supernatant, or the purified anti-HER3 antibodies diluted in Perkin Elmer #4002-0010 Assay Buffer from 10 ug/ml (or 100 ug/ml) to 0.01 ug/ml, or the PK serum samples with a minimum of 3 dilutions (100 ul/well) were added to the plate. These samples were incubated for 2 hours at room temperature while on a plate shaker or overnight at 4° C. […] The plate was washed 4 times with tris-buffer plus 0.05% tween-20 (Perkin Elmer #4010-0010) on a BIOTEK™ plate washer following each antibody incubation step. 100 ul/well of DELFIA enhancement solution (Perkin Elmer 1244-105) was added for 5 minutes at room temperature. […] Antibody binding was recorded as europium counts per well.

[6] = target: T3, Full-length human HER3 extracellular …; assay: affinity summary table, method not given
[7] = target: T4, Human HER3 ECD domain III; assay: affinity summary table, method not given
Human HER3 receptor [8] = target: T1, Human HER3 receptor; assay: cell-based or functional assay; remark: listed apart in the source
Human HER3 receptor [9] = target: T1, Human HER3 receptor; assay: cell-based or functional assay; remark: listed apart in the source
[10] = target: T6, Murine HER3 on B16 and B16F10 melanoma cells (murine, UniProt Q61526 20-1339); assay: flow cytometry on B16F10 murine melanoma cells, antibody labelled with a Zenon APC kit [a]
T6 construct: whole, on cells
T6 sequence (Q61526 20-1339, one chain of several): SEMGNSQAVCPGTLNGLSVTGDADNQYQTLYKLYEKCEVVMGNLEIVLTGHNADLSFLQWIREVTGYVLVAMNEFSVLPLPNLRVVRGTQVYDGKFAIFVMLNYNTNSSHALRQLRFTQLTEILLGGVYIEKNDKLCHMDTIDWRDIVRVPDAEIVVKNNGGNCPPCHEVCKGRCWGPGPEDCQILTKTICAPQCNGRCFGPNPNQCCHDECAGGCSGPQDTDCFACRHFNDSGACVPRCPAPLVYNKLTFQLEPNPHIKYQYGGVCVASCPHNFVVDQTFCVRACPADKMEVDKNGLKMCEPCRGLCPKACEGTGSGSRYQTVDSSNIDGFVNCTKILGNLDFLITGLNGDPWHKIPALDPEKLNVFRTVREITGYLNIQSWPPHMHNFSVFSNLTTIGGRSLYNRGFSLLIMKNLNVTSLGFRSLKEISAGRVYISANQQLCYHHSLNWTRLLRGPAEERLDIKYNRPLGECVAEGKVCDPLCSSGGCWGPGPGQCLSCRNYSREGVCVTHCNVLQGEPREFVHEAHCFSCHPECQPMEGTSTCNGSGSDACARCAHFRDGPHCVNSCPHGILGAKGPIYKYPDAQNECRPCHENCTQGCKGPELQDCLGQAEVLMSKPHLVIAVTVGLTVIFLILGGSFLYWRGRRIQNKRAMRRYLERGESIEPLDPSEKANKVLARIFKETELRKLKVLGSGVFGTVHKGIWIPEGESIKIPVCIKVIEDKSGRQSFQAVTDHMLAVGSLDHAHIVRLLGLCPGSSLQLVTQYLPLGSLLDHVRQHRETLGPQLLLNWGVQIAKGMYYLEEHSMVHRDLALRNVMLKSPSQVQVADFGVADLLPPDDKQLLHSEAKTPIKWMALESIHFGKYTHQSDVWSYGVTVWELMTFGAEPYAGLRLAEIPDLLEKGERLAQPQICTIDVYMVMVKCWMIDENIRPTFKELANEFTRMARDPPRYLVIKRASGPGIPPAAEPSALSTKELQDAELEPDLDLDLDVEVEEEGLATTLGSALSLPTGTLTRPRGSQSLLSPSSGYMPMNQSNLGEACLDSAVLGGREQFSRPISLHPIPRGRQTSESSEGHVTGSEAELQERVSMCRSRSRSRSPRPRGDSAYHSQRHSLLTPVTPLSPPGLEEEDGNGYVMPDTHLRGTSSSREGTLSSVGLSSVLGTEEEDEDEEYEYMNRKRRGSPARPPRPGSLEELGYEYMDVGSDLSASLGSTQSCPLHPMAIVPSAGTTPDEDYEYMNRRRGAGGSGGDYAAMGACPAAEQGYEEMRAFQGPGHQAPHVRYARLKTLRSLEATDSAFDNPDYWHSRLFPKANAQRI
From the text: B16F10 ZENON™ labeling kits: [0530] Mouse IgG1 PE—Invitrogen Z25021 [0531] Mouse IgG1 APC—Invitrogen Z25051 [0532] Mouse IgG2b APC—Invitrogen Z25151 Method: Commercially available anti-human EGFR and HER2 antibodies were provided. A commercially available HER3 antibody represented by the provider to recognizes human HER3 was provided. The murine 15D5 antibody, murine 1D9 antibody (M5.1D9.1F5), murine 24H5 antibody (M5.24H5.C2) antibodies were also provided. These antibodies were labeled with either PE or APC using the ZENON™ labeling kits (Invitrogen). 5×10⁶ B 16, or B16F10, murine melanoma cells were added to flow cytometry tubes containing the labeled anti-HER3 antibodies. Cells and antibodies were incubated for 30 minutes on ice in the dark, washed and resuspended in FACS buffer. Cells were then analyzed on a FACSCANTO™ flow cytometer. Data analysis was performed using […]™ software, developed by BD Biosciences. Cell populations were gated using forward vs. side scatter and histograms of fluorescent intensities were generated.

Human HER3 receptor [11] = target: T1, Human HER3 receptor; assay: cell-based or functional assay; remark: listed apart in the source
[12] = target: T3, Full-length human HER3 extracellular …; assay: DELFIA (europium time-resolved fluorescence), plate coated with HER3 ECD Full Length 1ug/ml, antibody titrated 0.001-10 ug/ml
Experimental: as §3

[13] = target: T7, Full-length rat HER3 extracellular domain (ECD) (rat, UniProt Q62799 20-643); assay: BIACORE SPR, mAb captured on protein A, ECD as analyte, 25 C
T7 construct: extracellular domain; also called Rat HER3 ECD
T7 sequence (Q62799 20-643): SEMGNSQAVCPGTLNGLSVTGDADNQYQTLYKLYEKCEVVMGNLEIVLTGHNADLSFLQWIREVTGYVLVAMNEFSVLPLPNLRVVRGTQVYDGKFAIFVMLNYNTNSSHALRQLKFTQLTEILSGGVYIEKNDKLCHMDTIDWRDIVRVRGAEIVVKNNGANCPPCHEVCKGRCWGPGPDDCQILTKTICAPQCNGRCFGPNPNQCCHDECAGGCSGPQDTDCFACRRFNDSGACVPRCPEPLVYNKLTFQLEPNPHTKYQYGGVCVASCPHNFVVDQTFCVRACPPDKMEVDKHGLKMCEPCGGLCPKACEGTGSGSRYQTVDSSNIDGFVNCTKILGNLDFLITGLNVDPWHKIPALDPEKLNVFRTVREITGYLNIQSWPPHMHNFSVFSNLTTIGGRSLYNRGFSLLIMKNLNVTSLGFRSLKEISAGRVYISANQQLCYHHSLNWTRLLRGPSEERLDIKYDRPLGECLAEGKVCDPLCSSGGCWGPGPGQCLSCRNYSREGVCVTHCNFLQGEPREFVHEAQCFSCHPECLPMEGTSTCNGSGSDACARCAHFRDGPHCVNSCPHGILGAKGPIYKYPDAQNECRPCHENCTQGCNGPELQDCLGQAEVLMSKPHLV
Experimental: (§4) Protein A was immobilised on a CM5 chip by primary amine coupling to a level of ˜1300 resonance units (RU′s), humanized antibodies were then captured on this chip, All antibodies were captured to a similar level (100-200 RU's). […] Alternatively, the full-length, rat HER3 ECD or the full-length cynomolgus monkey ECD were passed over the chip at 10 nM, 5 nM, 2.5 nM, 1:25nM, 0.625 nM and 0.3125nM. An injection of buffer alone was used to double reference the binding curves as indicated in Example 1. Regeneration of this surface was achieved using 10 mM Glycine buffer pH 1.5. The binding data was fitted to the 1:1 model using BIACORE™ Evaluation software. Runs were carried out at 25° C. on a BIACORE™ T3000 using HBS-EP as running buffer.

[14] = target: T3, Full-length human HER3 extracellular …; assay: as above
Experimental: as §4

Human HER3 ECD domain II [15] = target: T5, Human HER3 ECD domain II; assay: DELFIA, plate coated with HER3 Domain II 1ug/ml; remark: listed apart in the source
[16] = target: T3, Full-length human HER3 extracellular …; assay: DELFIA (europium time-resolved fluorescence), plate coated with HER3 ECD Full Length 1ug/ml, antibody titrated 0.001-10 ug/ml; remark: listed apart in the source
Human HER3 receptor [17] = target: T1, Human HER3 receptor; assay: cell-based or functional assay; remark: listed apart in the source

T1 sequence (P21860 20-1342 limits assumed): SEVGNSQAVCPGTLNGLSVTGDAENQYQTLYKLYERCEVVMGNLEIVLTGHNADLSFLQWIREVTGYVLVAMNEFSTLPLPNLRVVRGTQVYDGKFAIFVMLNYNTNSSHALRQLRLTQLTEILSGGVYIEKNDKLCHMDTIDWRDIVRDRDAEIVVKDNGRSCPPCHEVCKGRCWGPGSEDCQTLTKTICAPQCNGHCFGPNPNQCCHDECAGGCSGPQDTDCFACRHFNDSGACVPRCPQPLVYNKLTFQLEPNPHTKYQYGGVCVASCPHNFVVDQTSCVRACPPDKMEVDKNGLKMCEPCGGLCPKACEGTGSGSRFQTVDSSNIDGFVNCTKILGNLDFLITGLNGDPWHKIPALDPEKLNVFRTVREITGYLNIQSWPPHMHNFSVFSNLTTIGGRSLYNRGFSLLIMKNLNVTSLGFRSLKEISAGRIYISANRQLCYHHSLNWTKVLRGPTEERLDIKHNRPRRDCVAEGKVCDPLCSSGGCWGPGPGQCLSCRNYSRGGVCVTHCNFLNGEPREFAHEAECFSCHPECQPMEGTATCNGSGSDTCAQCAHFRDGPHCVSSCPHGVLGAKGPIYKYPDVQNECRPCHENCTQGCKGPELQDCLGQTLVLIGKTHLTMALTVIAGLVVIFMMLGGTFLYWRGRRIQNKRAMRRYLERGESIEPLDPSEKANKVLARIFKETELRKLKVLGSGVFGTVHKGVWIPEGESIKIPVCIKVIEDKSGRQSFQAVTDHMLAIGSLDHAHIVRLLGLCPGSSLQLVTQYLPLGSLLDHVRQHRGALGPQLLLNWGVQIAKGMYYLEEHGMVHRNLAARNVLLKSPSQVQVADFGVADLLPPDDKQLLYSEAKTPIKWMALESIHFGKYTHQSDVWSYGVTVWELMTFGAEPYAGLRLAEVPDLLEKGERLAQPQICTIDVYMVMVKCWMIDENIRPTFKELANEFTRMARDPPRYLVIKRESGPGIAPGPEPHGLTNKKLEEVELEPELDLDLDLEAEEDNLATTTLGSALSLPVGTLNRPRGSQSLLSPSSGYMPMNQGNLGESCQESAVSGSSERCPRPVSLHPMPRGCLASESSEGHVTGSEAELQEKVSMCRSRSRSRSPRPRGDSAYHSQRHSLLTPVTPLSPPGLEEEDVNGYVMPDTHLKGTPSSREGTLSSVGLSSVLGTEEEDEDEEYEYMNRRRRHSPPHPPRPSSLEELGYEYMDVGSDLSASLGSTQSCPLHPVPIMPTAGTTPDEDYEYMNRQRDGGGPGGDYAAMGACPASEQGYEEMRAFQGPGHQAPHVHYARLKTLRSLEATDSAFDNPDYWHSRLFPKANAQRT
T2 sequence (P21860 184-495): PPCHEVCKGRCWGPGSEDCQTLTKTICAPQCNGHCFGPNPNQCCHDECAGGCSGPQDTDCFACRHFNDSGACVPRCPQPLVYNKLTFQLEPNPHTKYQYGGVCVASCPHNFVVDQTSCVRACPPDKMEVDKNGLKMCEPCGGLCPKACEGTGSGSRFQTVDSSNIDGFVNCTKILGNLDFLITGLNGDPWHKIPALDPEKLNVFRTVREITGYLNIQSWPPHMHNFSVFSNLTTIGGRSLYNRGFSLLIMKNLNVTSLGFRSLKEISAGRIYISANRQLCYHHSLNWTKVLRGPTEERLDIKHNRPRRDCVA

Binder | Phospho-HER3 ELISA IC50, heregulin induced, BxPC3 cells (Human HER3 receptor [1]) [µg/mL] | Phospho-HER3 ELISA IC50, heregulin induced, CHL-1 cells (Human HER3 receptor [1]) [µg/mL] | Phospho-HER3 ELISA IC50, heregulin induced, N87 cells (Human HER3 receptor [1]) [µg/mL] | Phospho-HER3 ELISA IC50, heregulin induced, SK-BR-3 cells (Human HER3 receptor [1]) [µg/mL] | binding result (Human HER3 ECD domain II [5]) | Phospho-AKT ELISA IC50, heregulin induced, BxPC3 cells (Human HER3 receptor [11]) [µg/mL] | Kd [14] [nM] | koff [14] [s⁻¹] | kon [14] [M⁻¹ s⁻¹] | other results
Humanized 1D9 POTELLIGENT™ antibody (antibody, human IgG1, kappa, non-fucosylated glycans on the marked N* residue, Same chains as the humanized 1D9 antibody, expressed in FUT8- cells; also called humanized 1D9 H6L2 POTELLIGENT antibody) heavy: not shown light: DIQMTQSPSSLSASVGDRVTITCRSSQSIVHSSGNTYLQWFQQKPGKAPKLLIYKVSNRFSGVPSRFSGSGSGTDFTLTISSLQPEDFAVYYCFQGSHVPWTFGQGTKLEIKRTVAAPSVFIFPPSDEQLKSGTASVVCLLNNFYPREAKVQWKVDNALQSGNSQESVTEQDSKDSTYSLSSTLTLSKADYEKHKVYACEVTHQGLSSPVTKSFNRGEC | 0.0056 | 0.0282 | 0.0175 | 0.0034 | no binding (tested: 10 ug/ml) | 0.0228 | 2.01 | 0.00223 | 1.11e+06 | EC50 (read off the curve) [12]: ~0.03 µg/mL; Kd [13]: 3.37 nM; koff [13]: 0.0011 s⁻¹; kon [13]: 326000 M⁻¹ s⁻¹
Humanized 1D9 …B™ antibody (antibody, human IgG1, kappa, non-fucosylated glycans on the marked N* residue, Chimeric IgG1/IgG3 Fc, expressed in FUT8- cells; also called humanized …B 1D9 antibody; humanized 1D9 H6L2 …B antibody) heavy: QVQLVQSGAEVKKPGASVKVSCKASGYTFTSYWMHWVRQAPGQGLEWMGVIDPSDGYSHYNQKFKGKVTLTVDTSISTAYMELSRLRSDDTAVYYCAGGLAGTLDYWGQGTTVTVSSASTKGPSVFPLAPSSKSTSGGTAALGCLVKDYFPEPVTVSWNSGALTSGVHTFPAVLQSSGLYSLSSVVTVPSSSLGTQTYICNVNHKPSNTKVDKKVEPKSCDKTHTCPPCPAPELLGGPSVFLFPPKPKDTLMISRTPEVTCVVVDVSHEDPEVQFKWYVDGVEVHNAKTKPREEQFNSTFRVVSVLTVLHQDWLNGKEYKCKVSNKALPAPIEKTISKTKGQPREPQVYTLPPSREEMTKNQVSLTCLVKGFYPSDIAVEWESSGQPENNYKTTPPMLDSDGSFFLYSKLTVDKSRWQQGNIFSCSVMHEALHNHYTQKSLSLSPGK light: DIQMTQSPSSLSASVGDRVTITCRSSQSIVHSSGNTYLQWFQQKPGKAPKLLIYKVSNRFSGVPSRFSGSGSGTDFTLTISSLQPEDFAVYYCFQGSHVPWTFGQGTKLEIKRTVAAPSVFIFPPSDEQLKSGTASVVCLLNNFYPREAKVQWKVDNALQSGNSQESVTEQDSKDSTYSLSSTLTLSKADYEKHKVYACEVTHQGLSSPVTKSFNRGEC | 0.0026 | 0.0311 | 0.0094 | 0.0025 | no binding (tested: 10 ug/ml) | 0.0108 | 2.06 | 0.00233 | 1.13e+06 | IC50 of heregulin induced phospho-AKT formation, BxPC3 cells (Human HER3 receptor [17]): 0.0026 µg/mL

Continued, in another order:

Phospho-HER3 ELISA IC50, heregulin induced, BxPC3 cells (Human HER3 receptor [1]) [µg/mL] | Phospho-HER3 ELISA IC50, heregulin induced, CHL-1 cells (Human HER3 receptor [1]) [µg/mL] | Phospho-HER3 ELISA IC50, heregulin induced, N87 cells (Human HER3 receptor [1]) [µg/mL] | Phospho-HER3 ELISA IC50, heregulin induced, SK-BR-3 cells (Human HER3 receptor [1]) [µg/mL] | binding result (Human HER3 ECD domain II [5]) | Phospho-AKT ELISA IC50, heregulin induced, BxPC3 cells (Human HER3 receptor [11]) [µg/mL] | Kd [14] [nM] | koff [14] [s⁻¹] | kon [14] [M⁻¹ s⁻¹] | Binder | other results
0.0068 | 0.0406 | 0.0204 | 0.0032 | no binding (tested: 10 ug/ml) | 0.0151 |  |  |  | Murine 1D9 antibody (M5.1D9.1F5) (antibody, IgG2b, V domains shown, Mouse monoclonal, IgG2b; also called m1D9) VH: QVQLQQPGAELVRPGTSVKLSCKASGYTFTSYWMHWVKQRPGQGLEWIGVIDPSDGYSHYNQKFKGKATLTVDTSSSTAYMQLSSLTSEDSAVYYCAGGLAGTLDYWGQGTTLTVSS VL: DVLMTQTPLSLPVSLGDQASISCRSSQSIVHSSGNTYLQWFLQKPGQSPKLLISKVSNRFSGVPDRFSGSGSGTDFTLRISRVEAEDLGLYYCFQGSHVPWTFGGGTKLEIK | Phospho-HER3 ELISA IC50, heregulin induced, BT-474 cells (Human HER3 receptor [1]): 0.0223 µg/mL; Phospho-HER3 ELISA IC50, heregulin induced, MCF7 cells (Human HER3 receptor [1]): 0.0104 µg/mL; Kd [2]: 0.47 nM; kon [2]: 893000 M⁻¹ s⁻¹; Kd [3]: 0.82 nM; kon [3]: 355000 M⁻¹ s⁻¹; Kd [4]: 0.38 nM; kon [4]: 2.54e+06 M⁻¹ s⁻¹; Kd [6]: ~1 nM; Kd [7]: 0.39 nM; Phospho-HER3 ELISA IC50, betacellulin induced, SK-BR-3 cells (Human HER3 receptor [8]): 0.0036 µg/mL; Phospho-HER3 ELISA IC50, epidermal growth factor induced, SK-BR-3 cells (Human HER3 receptor [8]): 0.003 µg/mL; Phospho-HER3 ELISA IC50, heregulin induced, SK-BR-3 cells (Human HER3 receptor [8]): 0.0032 µg/mL; Phospho-HER3 … IC50, heregulin induced, CHO EGFR + HER3 (Human HER3 receptor [9]): 0.0435 µg/mL; Phospho-HER3 … IC50, heregulin induced, CHO HER4 + HER3 (Human HER3 receptor [9]): 0.13 µg/mL; binding result [10]: binds
0.0116 | 0.0365 | 0.0218 | 0.0036 |  | 0.0244 | 4.5 | 0.00184 | 410000 | Humanized 1D9 antibody (antibody, human IgG1, kappa, Expressed in FUT8+ cells; also called HZ1D9; H6L2) heavy: not shown light: DIQMTQSPSSLSASVGDRVTITCRSSQSIVHSSGNTYLQWFQQKPGKAPKLLIYKVSNRFSGVPSRFSGSGSGTDFTLTISSLQPEDFAVYYCFQGSHVPWTFGQGTKLEIKRTVAAPSVFIFPPSDEQLKSGTASVVCLLNNFYPREAKVQWKVDNALQSGNSQESVTEQDSKDSTYSLSSTLTLSKADYEKHKVYACEVTHQGLSSPVTKSFNRGEC | binding result (Human HER3 ECD domain II [15]): no binding (tested: 10 ug/ml); EC50 (read off the curve) [16]: ~0.04 µg/mL
